Experimental data reported in patent US20170043011A1.

Target: human CD81 on Hep3B hepatoma cells (human) (UniProt P60033)
Test: cell-based or functional assay

Sequence of UniProt P60033 (P60033 whole entry): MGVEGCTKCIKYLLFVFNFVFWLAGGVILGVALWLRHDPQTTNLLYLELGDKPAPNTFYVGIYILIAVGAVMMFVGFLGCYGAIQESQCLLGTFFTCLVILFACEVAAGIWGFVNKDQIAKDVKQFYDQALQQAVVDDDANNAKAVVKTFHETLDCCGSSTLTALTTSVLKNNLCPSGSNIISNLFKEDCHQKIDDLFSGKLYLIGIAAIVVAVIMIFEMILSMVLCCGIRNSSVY

Work on “mouse anti-human CD81 monoclonal antibody, clone 1.3.3.22 (Santa Cruz Biotechnology)” yielded a fold decrease in infectivity of Bole1a HCVpp on Hep3B cells (luciferase RLU) of 10 fold.
